# Data reported in the DeepSol protein solubility set.
# Assay: soluble on expression in E. coli; label from the status in PepcDB or PDB records
row,Sequence,soluble on expression in E. coli
1,MIINIRKFREHDLKRVMEIEKESFDKNYPEFLMMHIYTSFPDGFLVAETEDGKIVGYIIALMEWGNGHVVSIAVDSAYQNYGIGNALLSATENFLFNECHAKHCVLEVRFDNKKAREFYYKRNYVDRKVLYNYYDDGADAILMIKRRFDLSGNYPIFVNMW,not soluble
2,MSLRVTDFSFELPESLIAHYPMPERSSCRLLSLDGPTGALTHGTFTDLLDKLNPGDLLVFNNTRVIPARLFGRKASGGKIEVLVERMLDDKRILAHIRASKAPKPGAELLLGDDESINATMTARHGALFEVEFNDERSVLDILNSIGHMPLPPYIDRPDEDADRELYQTVYSEKPGAVAAPTAGLHFDEPLLEKLRAKGVEMAFVTLHVGAGTFQPVRVDTIEDHIMHSEYAEVPQDVVDAVLAAKARGNRVIAVGTTSVRSLESAAQAAKNDLIEPFFDDTQIFIYPGFQYKVVDALVTNFHLPESTLIMLVSAFAGYQHTMNAYKAAVEEKYRFFSYGDAMFITYNPQAINERVGEEGGSHHHHHH,soluble
3,YHKLRLAIKEICKTDGIPNIKWGMYIAFGEKLLKSYLKMKAGSASSDMIAEYINNAISAFSSRTGISQETAQKIADFITSNY,soluble
4,MTPNGHHFRTVIYNAAAVGNLQRIKVFTINSRNDRQWIIDCFNSDQDGRYPLVIAARNGHANVVEYLLEIGADPSVRGVVEFDNENIQGTPPLWAASAAGHIEIVKLLIEKANADVNQATNTRSTPLRGACYDGHLDIVKYLLEKGADPHIPNRHGHTCLMIASYRNKVGIVEELLKTGIDVNKKTERGNTALHDAAESGNVEVVKILLKHGSVLMKDIQGVDPLMGAALSGFLDVLNVLADQMPSGIHKRDALKLLGSTLLDKKMDAMSAMNCWKQSMEVPLHADDLRLVREMETFFEPQEVYEYQREAQNIAQVELLDGNIEAQRMQALVIRERILGGAHTDVHYYLRFRGAVYCDMGQMNRCYDLWKHALELQQKHFAPLYYGTITTLQSFHETFSMSLNDFVNNHHANRNLRVRSSWVKYVFNGVCLELERAAAWTGAPLLEDTECCGKERCQHATEESEYKKLVYVAVHLVNVLERLSLPSAHIDDSDEEKEPKADVRRLMIVCHELHIPLLHHTLEERIPDSNSAELGLPKAAVLEQLLELDLDVNATDKNNDTPMHILLRAREFRKSLVRALLVRGTWLFARNRHGDVVLNVMKRMKALNHANFDDLPLGRHITLAGLVANAMRVKYPKKFVGVEEQMPLELRRFYLAH,not soluble
5,GPGSMFLSLANKLVVSRQRGSSCERMAQPKERASISSEELVVWKAAERVRKGASLPLSRVARCIASATKLLKVETKVVERVCGDTIVFGPIRGHAADFANILLTKVLPNRCVRNIVFLGNYIDGAHQSLGVLFLIAALIVCSRFHIVPLIGKHEMMYPILSETFGSLRNEMLLCCTRRRQPLEQYESIMKEFFSVLPIACVVENKFFCVAGGPSSKFRTLKEIELITMTQEASNEFVLNEPMDEDEERIADRSAFVASQGTELAFRYTFNAACNFLSRNKLAMLIVGMEYHMSLPDYDSFARPNHYKESIYFPGYMLGRIHPESQLPAVLSIFSAPSFCGVNRNNACIAEIAGNRLVVQELGVYAKRPLVTPGTQDHAFSWAQPMLERAVVAIARDIIRGVIKEDAATDDDAHRKRLEEVAVSKMRRMCMLLRTHNIPFPDVPKLTFR,not soluble
6,MSLSNRAGEILIVEDSPTQAEHLKHILEETGYQTEHVRNGREAVRFLSLTRPDLIISDVLMPEMDGYALCRWLKGQPDLRTIPVILLTILSDPRDVVRSLECGADDFITKPCKDVVLASHVKRLLSGVKRTEERYSRESITLAFGNEGHHHHHH,soluble
7,MSLKAEFLTPVVTIFDEEGNLDKEGNKKVYDHLIDGGVDGLVIMGSTGEFFNMSMDMQKELIDLVTSHVNKRVKVFIGTSRMCINESIELSNYAHNSGADGVMIISPYYFSLDDDSIELFYSEIAKNTEAEIYLYNYPDRTGYDLSPELTLRLARKHKNIVGYKDTVTLMGHTRDLINTMKIEFPEFKVYSGYDENFIHNLMSGGAGCIGGLSNLIPEVCSKWAEAYNNRDMEKVIEIQKYINKAMDFYLITNPFIPAMKKAMNIRGLQISDYMTAPFVKPNEKQVCEIKKLMNELNIEGHHHHHH,soluble
8,MRGENTMTPVFELKNVNYYYDHKKVLENINIKINKGEFLAIVGPNGAGKSTLLKLILGLLPLQSGEIFVEGIDFKNKKTSIKLSYVSQKANAFNSGFPASVKEVVLSGLTKTKRLFQTFNSKDNEKVIKVLERLNISDLIHKNIAELSGGQQQRVMIARALISEPAVLVLDEPTNGIDAKHVSEFYNTLDQLKQEGITIILVTHDIGVVADTATEVACLNKHLHFHGTTDEFKSLDEVEISKIYGHPVRFVDHQHNRECCN,not soluble
9,KKPEGKPDQKFDQKQELGRVIHLSNLPHSGYSDSAVLKLAEPYGKIKNYILMRMKSQAFIEMETREDAMAMVDHCLKKALWFQGRCVKVDLSEKYKKLV,soluble
10,EFSGSFNRQFKLNKPVIPVNTEYVTRKEFNEYKDSNDQRLTKIENKVDKLEIKVDKLEKKVDKLEVKVDKLVETVNAQGEDLNNFKVEVRGTLQSQGETLQLILQTLQGMSKRLDSVEGRLDSMDGRLDSMETRLDKID,soluble
11,APQIQYKQLQLARLKILRELSNKRNSTVITMIHRQESIGLFGIPVYKFITIEDSEEILRAIRAAPKDKPIDLIIHTPGGLVLAATQIAKALKAHPAETRVIVPHYAMSGGTLIALAADKIIMDENAVLGPVDPQLGQYPAPSIVKAVEQKGADKADDQTLILADIAKKAINQVQNFVYNLLKDKYGEEKAKELSKILTEGRWTHDYPITVEEAKELGL,not soluble
12,MAESCVKPQLPRPRIPNIRVFQPTTRIPTFTYEQFNESVEILPSRPECLYRRNDPTNRSYRMKKRPPAQIYHCVQCNKHIKYPSKITEHIRKHTGEKPNVCSICNISFSQAHTLKTHMQQHAHEKPYKCSFCTAEFLNVYEKNEHEEQHMHHPNHGETMEENNATTSQFIQVAEPTIQAEPCQIYECSEMCGFQSYEEAEVVEHMTVTHYQQTKKSKEIPKLKNPGFSINFNYFQVQNGLILQDFNGEPEPIYEFYEEQYVQQVPTEIEETPTIKQQSIPYENLHFEHVEAAPGPSEPHLQVVAEGEILYDGEEIVDISNGKSLKEEIQNGDANIYGMIQDLEEEVEDIGNEDEERERVRIMVNPNPPKRGTKSLRDHHEATAATMEMIVDASILELAEPSRHLKQGYPPISKRKNTGKRAENLDWIIDAVAKGVDVSEASPHHRKKPTLHKCEYCGRVDKYPSKIRAHMRTHTGEKPFKCEICGMAFSQKTPMRLHLRRHFDQKPYECDVDGCKERFVSGAILKMHVEKKHLNKKKYVCSRGCGRVFSSAYNQKHHEKKCEQTYVTWVEGEQQSVESGEEDEESNGEYPDDDEEYMDDMIDASTSQPINRVVEHFSEEPVFLHQ,not soluble
13,MPTNCAAAGCATTYNKHINISFHRFPLDPKRRKEWVRLVRRKNFVPGKHTFLCSKHFEASCFDLTGQTRRLKMDAVPTIFDFCTHIKSMKLKSRNLLKKNNSCSPAGPSNLKSNISSQQVLLEHSYAFRNPMEAKKRIIKLEKEIASLRRKMKTCLQKERRATRRWIKATCLVKNLEANSVLPKGTSEHMLPTALSSLPLEDFKILEQDQQDKTLLSLNLKQTKSTFI,not soluble
14,MAHHHHHHMTIRVAINGYGRIGRNTLRAFYENGKKHDLEIVAINDLGDAKTNAHLTQYDTAHGKFPGEVSVDGDYLVVNGDRIRVLANRNPAELPWGELGVDVVMECTGFFTSKEKASAHLKGGAKKVIISAPGGKDVDATIVYGVNHDVLKAEHTVISNASCTTNCLAPLVKPLNDKIGLETGLMTTIHAYTNDQVLTDVYHEDLRRARSATHSQIPTKTGAAAAVGLVLPELNGKLDGYAIRVPTINVSIVDLSFIAKRDTTAAEVNAIMKEASEGALKGILGYNEAPLVSIDFNHNPASSTFDATLTKVSGRLVKVSSWYDNEWGFSNRMLDTAIALANAK,soluble
15,MQIYTADGKLIGEVGEQRRIPVKLADVPQRLIDAFLATEDSRFYDHHGLDPIGIARALFVAVSNGGASQGASTITQQLARNFFLTSEKTIIRKAREAVLAVEIENTLNKQEILELYLNKIFLGYRSYGVAAAAQTYFGKSLNELTLSEMAIIAGLPKAPSTMNPLYSL,not soluble
16,MADLFDGMKRRMDALIAERFGMKVNINGTDCIVVESDFLAELGPVEGNGKNVVVFSGNVIPRRGDRVVLRGSEFTVTRIRRFNGKPQLTLEENNGGKGA,soluble
17,MSLKVKRPFDAYLDEMNKITILLPHAYGTSRTFRLQEGSNVKDLPIAHTIALPDATKYECFIEEPLDVGKYYTVRDERNEETDLQIGAVIRTAIFDEKYYYEGTDLGAVHQKEATTFKVWAPTARLAKVRIYKSDKEYTDYEMYREENGVWAHTLHGDLAGEKYTFLVCINLIWNEAVDPYAKSVTVNGKYGVVIDLEKTNVTKRGQLPPLQAMTDAILYELHIRDATIHPGSGVSKKGTYKGLMEEGTTGRNGTLTGLSHIKDLGVTHVELLPLYCFGGVDEANPSSAYNWGYNPLYYNAPTGYYATNPSDPYNRIVECKQLIETFHEHGIRVIIDVVYNHVYERELSSFEKLVPGYYFRHGENGMPSNGTGVGNDIASERKMMRKFIVESILYWLTEYNVDGFRFDLMGILDVDTINIIEKEVRNIKRDALLLGEGWDLQTPLPLEEKATLNNAKKMPHIAQFNDQFRDGIKGSTFHINKRGFAFGGYVDCNHLQYIASGSLLSMKETGLFLEPVQSINYVECHDNMTMWDKLMRSNEESEEILKKRHLLATAMVILSQGIPFLHAGQEFYRTKQGNENSYNANDEINQLDWDRKEKEIETVNYIKGLIAIRKEHGAFRLQNADLIKKHMTFLQTSPEVLAYHLEHVESFGPWKEIVVLFNSSLEAKTVQLPKEETWHVLVNEKQAKIEPISSFRGKELRLAPISTYILTIMEGHHHHHH,soluble
18,MLKAMEHPAYSQLRPVTPSAGVVLCPNPGYSSLEGTNSWVVRAEGDRCSIVIDPGPADEGHLNVLHGKAETVGLVLLTHRHHDHADGAERFRQLTGAAIRAQQAPYCHGGDVLRDGEIIAIDGVTPQLEVVFTPGHTSDSVCFFVWSGVPHESNLEGIITGDTIAGRHTTMISETDGDLGQYLNTLALLEKRGKGIALLPGHGPDGDDVASFAHWYIERRMQRLEQIKEAIAQRGADVPIKELIDAVYDDVDPVLRGAAEQSTRVALRYLAQQQ,not soluble
19,MGSDKIHHHHHHMMQSAAINRRSFVKAAGLGFLATLTPRSLMALERADAVYASGIRAADGSFAIATVTERGEIVDQVALPARAHGIAFSASTGKTVAFARRPGTYAMIFDPWNKSEPIVISSREDRHFYGHGAFSPDGRLLYASENDFDGNRGMIGLYDATDRFTRIGEFETYGIGPHDMTVSDDGRLLIVANGGIETHPDFGRTKLNLGEMQPSLALIDAATGALVEKHVLPAEWAELSTRHVDLDGAGRIWFACQYEGHRKDLPPLVGHFAKGEDLSFIDLPEETTRRLANYVGAIAVNRSEGLVGITSPKGGASVTIDARTGKMLAETSVPDAAGIAPARNGFAVSSYDGDFLSTRSDVAWDQHIVRI,not soluble
20,MHITLRQLEVFAEVLKSGSTTQASVMLALSQSAVSAALTDLEGQLGVQLFDRVGKRLVVNEHGRLLYPRALALLEQAVEIEQLFREDNGAIRIYASSTIGNYILPAVIARYRHDYPQLPIELSVGNSQDVMQAVLDFRVDIGFIEGPCHSTEIISEPWLEDELVVFAAPTSPLARGPVTLEQLAAAPWILRERGSGTRDIVDYLLLSHLPKFEMAMELGNSEAIKHAVRHGLGISCLSRRVIEDQLQAGTLSEVAVPLPRLMRTLWRIHHRQKHLSNALRRFLDYCDPANVPR,not soluble
